Measurements: paper PMC7315649
pKd: −log10 of the molar value.

Molecular target: human plasminogen (human)
Test: SPR; BIAcore T100 at 25°C; plasminogen amine-coupled to a CM-5 chip (5.0 ng/mm^2); dispersin at 2.5–120 μM in HBS-P (10 mM HEPES pH 7.4, 150 mM NaCl, 0.005% P20) at 30 μL/min; 1:1 model

“recombinant dispersin (mature dispersin of enteroaggregative Escherichia coli strain 17-2) (from UniProt P43464 1-265) (natural protein)” gave a pKd of 6.55, a koff of 0.0016 s⁻¹ and a kon of 5680 M⁻¹ s⁻¹.
